Measurements taken from article PMC8490876, “Functional Characterization of a L-2-Haloacid Dehalogenase From Zobellia galactanivorans Dsij^T Suggests a Role in Haloacetic Acid Catabolism and a Wide Distribution in Marine Environments” (Frontiers in Microbiology, 2021).

Target: recombinant ZgHAD, L-2-haloacid dehalogenase of Zobellia galactanivorans Dsij^T (Zobellia galactanivorans Dsij^T)
Assay: SEC; gel filtration on HiLoad 16/600 Superdex 200 pg after nickel affinity purification; oligomeric state of the recombinant protein in solution

stoichiometry N: 2
Substance: recombinant ZgHAD, L-2-haloacid dehalogenase of Zobellia galactanivorans Dsij^T (enzyme)
